Assay results reported in US20250262316A1 (BIO THERA SOLUTIONS, published 2025).

Legend:
B7-H3 on Calu-6 cells = molecular target: T1, B7-H3 on Calu-6 cells (UniProt Q5ZPR3 29-534, limits assumed); test: cell-based or functional assay
T1 sequence (looked up): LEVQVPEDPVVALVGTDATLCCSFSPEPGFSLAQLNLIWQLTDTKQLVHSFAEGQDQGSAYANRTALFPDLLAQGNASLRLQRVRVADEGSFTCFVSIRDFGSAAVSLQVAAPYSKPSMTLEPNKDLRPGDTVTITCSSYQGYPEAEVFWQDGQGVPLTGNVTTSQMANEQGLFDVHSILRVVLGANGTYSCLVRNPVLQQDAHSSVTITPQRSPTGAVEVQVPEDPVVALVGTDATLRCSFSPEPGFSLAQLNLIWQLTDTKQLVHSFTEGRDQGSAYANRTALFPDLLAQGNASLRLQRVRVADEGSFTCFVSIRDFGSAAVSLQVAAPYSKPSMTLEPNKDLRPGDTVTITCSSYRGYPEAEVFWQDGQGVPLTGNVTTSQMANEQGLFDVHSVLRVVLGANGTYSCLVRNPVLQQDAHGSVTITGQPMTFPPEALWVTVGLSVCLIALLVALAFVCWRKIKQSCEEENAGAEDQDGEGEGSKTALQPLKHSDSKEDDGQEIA

[1] = molecular target: T2, B7-H3 (NCBI Reference Sequence: NP_001019907.1) on CHO-K1-B7-H3 cells (human, UniProt Q5ZPR3 29-534); test: cell-based or functional assay
T2 sequence: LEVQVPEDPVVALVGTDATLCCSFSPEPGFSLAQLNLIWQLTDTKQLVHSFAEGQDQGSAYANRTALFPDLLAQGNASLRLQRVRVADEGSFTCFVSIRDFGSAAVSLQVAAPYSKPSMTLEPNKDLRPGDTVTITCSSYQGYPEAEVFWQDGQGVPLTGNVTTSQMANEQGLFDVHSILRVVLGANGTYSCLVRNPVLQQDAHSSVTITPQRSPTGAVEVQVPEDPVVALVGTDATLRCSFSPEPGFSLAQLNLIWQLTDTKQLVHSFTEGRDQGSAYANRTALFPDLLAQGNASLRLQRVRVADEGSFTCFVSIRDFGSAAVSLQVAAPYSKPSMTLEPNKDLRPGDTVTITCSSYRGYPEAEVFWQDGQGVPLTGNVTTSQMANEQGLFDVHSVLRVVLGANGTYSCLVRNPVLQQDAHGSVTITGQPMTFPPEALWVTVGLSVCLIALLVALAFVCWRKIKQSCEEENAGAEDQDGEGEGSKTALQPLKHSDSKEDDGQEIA

B1: ADC2 (control drug) (antibody, human IgG1, kappa, V domains shown)
VH: EVQLVQSGAEVKKSGESLKISCKASGYTFTDYDINWVRQMPGKGLEWIGWIFPGDDTTKYNEKFKGQVTLSADKSTNTAYMQWSSLKASDTAMYYCARSPSFDYWGQGTLVTVSS
VL: QIVLTQSPGTLSLSPGERATLSCSASSTIGFMYWYQQKPGQAPRRWIYDTSKLASGVPDRFSGSGSGTDYTLTISRLEPEDFAVYYCHQRSSYPTFGQGTKVEIKR
modifications: MC-GGFG-DXD (Deruxtecan) conjugated after TCEP reduction; DAR (p) 3.7 for the whole antibody; sites not stated
IC50 (nM), in-vitro cytotoxicity, CCK8 (B7-H3 on Calu-6 cells): 68.8 nM
IC50 (nM), in-vitro cytotoxicity, CCK8 [1]: 0.77 nM
